Results as given in paper PMC8752837, “Structural basis of BAK activation in mitochondrial apoptosis initiation” (Nature Communications, 2022).
One block for each binder: values may come before it.

Legend:
[1] = target: T1, MEAS-BAK-His6 (C-terminus truncated recombinant human BAK containing C-terminal 6x histidine tag) (human) (UniProt Q16611)
T1 sequence: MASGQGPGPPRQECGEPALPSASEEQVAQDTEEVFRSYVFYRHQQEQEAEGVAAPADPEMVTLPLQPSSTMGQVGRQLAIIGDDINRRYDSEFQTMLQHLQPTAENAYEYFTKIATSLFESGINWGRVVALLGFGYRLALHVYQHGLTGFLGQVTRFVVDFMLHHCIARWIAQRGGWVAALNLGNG

[2] = target: T2, Human BAK-∆TM-His6 (human); assay: SPR; MEAS-BAK-His6 captured (~500 RU) on Ni2+-charged NTA HisCap chip, peptides injected; 20 °C; 20 mM HEPES pH 8.0, 200 mM NaCl, 1 mM TCEP, 0.01% Tween20; 1:1 interaction model
T2 sequence (Q16611 whole entry, looked up): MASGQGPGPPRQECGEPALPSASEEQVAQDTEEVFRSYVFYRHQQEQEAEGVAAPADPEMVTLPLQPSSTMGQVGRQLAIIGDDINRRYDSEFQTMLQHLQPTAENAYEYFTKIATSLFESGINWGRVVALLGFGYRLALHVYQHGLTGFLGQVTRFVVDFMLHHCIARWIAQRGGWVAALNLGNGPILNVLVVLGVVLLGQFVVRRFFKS

Supplementary Table 1: liposome permeabilization EC50 (peptide dose against AUC, 50 nM BAK; data of Supplementary Figure 4b; also printed in Supplementary Figure 3d) [1]: 0.0358 µM
B1: WT BAK BH3 peptide (peptide)
peptide: SASEEQVAQDTEEVFRSYVFYRHQQEQEAEGVAAPADPEMVTLPLQPSSTMGQVGRQLAIIGDDINRRYDSEFQTMLQHLQPTAENAYEYFTKIATSLFESGINWGRVVALLGFGYRLALHVYQHGLTGFLGQVTRFVVDFMLHHCIARWIAQRGGWVAALNL
modifications: N-terminal acetylation; C-terminal amidation

Kd [2]: 67 µM
B2: BAK BH3 peptide (peptide)
peptide: B1 peptide
modifications: N-terminal acetylation; C-terminal amidation
